Measurements as given in article PMC11062541.
Read-outs that look alike come from different tables or passages of the source.

Legend:
Assay in all cases: EMSA
[1] = system: T1, AbiEi (Streptococcus suis serotype 5 strain HN105), ORF:22a13f51
T1 sequence: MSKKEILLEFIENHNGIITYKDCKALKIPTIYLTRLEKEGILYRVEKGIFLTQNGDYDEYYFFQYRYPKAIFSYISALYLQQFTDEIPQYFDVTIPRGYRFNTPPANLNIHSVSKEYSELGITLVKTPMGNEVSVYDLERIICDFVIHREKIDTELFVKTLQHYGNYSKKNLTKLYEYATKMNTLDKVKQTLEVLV

[2] = system: T2, SezA (Streptococcus suis serotype 5 strain HN105), ORF:21ec5bb3
T2 sequence: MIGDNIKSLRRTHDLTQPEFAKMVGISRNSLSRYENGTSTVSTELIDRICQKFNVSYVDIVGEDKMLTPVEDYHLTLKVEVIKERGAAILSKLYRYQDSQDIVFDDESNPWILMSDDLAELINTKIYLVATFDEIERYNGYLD

[3] = system: T3, AbiEiDel-AHTH internal_change (Streptococcus suis serotype 5 strain HN105), ORF:22a13f51
T3 sequence: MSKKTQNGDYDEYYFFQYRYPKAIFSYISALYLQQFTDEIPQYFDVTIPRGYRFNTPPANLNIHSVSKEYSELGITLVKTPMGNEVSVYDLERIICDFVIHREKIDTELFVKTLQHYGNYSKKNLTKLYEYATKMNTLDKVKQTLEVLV

[4] = system: AbiEi (Streptococcus suis serotype 5 strain HN105)
[5] = system: SezA (Streptococcus suis serotype 5 strain HN105)

## GGGACATTATAACCGATGAGGAACAAATTCTTGATAAGTCAATCCAAGAAGCGAAAAATAAACTGAATACTGAGCAGTTGGAGAAGCGAATAGAGGAGTTTAAGCAATCGAAGAAACCTAAAAACGGATAATGCACCAAATATGGTGCGTTATCCGTTTTTTATGGTATAATGAAAGCAAATATGAGGAGGTCTTTATCT (double strand) [SezAT promoter]
[1]
  binding: binds
[2]
  binding: binds

## AGAAAGTGATGATTACATGTTTTGGTCATAAATAGTCCTTCTTTTCTTTTTTCTGTAGCAACAAACTGTCACTCTTTTCTCATCATAAAAAAGAAGGCTTGATTTTGTTATCACAATACATTAATGTAAAAGAAATATTGTAAAAGGAAGGAGTAAGT (double strand) [PAbiE-ΔIR1/2]
[1]; IR1 and IR2 deleted
  binding: no binding

## AGAAAGTGATGATTACATGTTTTGGTCATAAATAGTCCTTCTTTTCTTTTTTCTGTAGCAACAAACTGTCACTCTTTTCTCATCATAAAAAAGAAGGCTTGATTTTGTTATCACAATACATTAATGTAAAAGAAAATGTTGCTTTTGCACTACAAATATTGTAAAATTGTAGTATAAAAGCAACATTGGAAGGAGTAAGT (double strand) [AbiE promoter]
[1]
  binding: binds
[3]
  binding: no binding
[2]
  binding: no binding

## AGTACAGGACTGGATTCAATTTTATGCCAAAATTCCTGCCAAACTTCAAATTTATGAACTCAAACCCCTTGATACTGCACATTTAACAGGTTGTGCAATTTAGAGTTTCCAATCAAAATAAAAACCTATCACCTAATGTGGTAGGTTTTTTTTGTTCTATTGTTGCAAACGTTTTCGTTGTGGGGTATAATATAAAAAAT (double strand) [L-ΔattL]
[2]; attL deleted
  binding: no binding

## TATAAGGAAATGAAAAGTAGGTTAGAAATATCCTACTTTTTGTTTTGTGATACCTTTTCCAAATCACCTCTATTATCCTAATATCATTCCTAAAAAAATCAAGTGTTGATTTTCTACTGCGAACAAGGAGAGAGTGAAGTCTTTAGGAAGCGTACTGACAATGTGAGGCAGCCTTACATTGTCAGACAAATATCATGTTGAAAGGATAGTAGG (double strand) [T-ΔoriT]
[1]; oriT deleted
  binding: no binding

## T sequence (oriT)
[4]
  Kd: 153 nM

## ACTTACTCCTTCCTTTTACAATATTTGTAGTGCAAAAGCAACATTTTCTTTTACATTAATGTATTGTGATAACAAAATCAAGCCTTCTTTTTTATGATGAGAAAAGAGTGACAGTTTGTTGCTACAGAAAAAAGAAAAGAAGGACTATTTATGACCAAAACATGTAATCATCACTTTCT (double strand) [PAbiE-ΔIR1]
[1]; IR1 deleted
  binding: binds

## AGATAAAGACCTCCTCATATTTGCTTTCATTATACCATATATTAGGTTTCTTCGATTGCTTAAACTCCTCTATTCGCTTCTCCAACTGCTCAGTATTCAGTTTATTTTTCGCTTCTTGGATTGACTTATCAAGAATTTGTTCCTCATCGGTTATAATGTCCC (double strand) [PSezAT-ΔIR1/2]
[2]; IR1 and IR2 deleted
  binding: no binding

## AGAAAGTGATGATTACATGTTTTGGTCATAAATAGTCCTTCTTTTCTTTTTTCTGTAGCAACAAACTGTCACTCTTTTCTCATCATAAAAAAGAAGGCTTGATTTTGTTATCACAATACATTAATGTAAAAGAAATATTGTAAAATTGTAGTATAAAAGCAACATTGGAAGGAGTAAGT (double strand) [PAbiE-ΔIR2]
[1]; IR2 deleted
  binding: binds

## CCTACTATCCTTTCAACATGATATTTGTCTGACAATGTAAGGCTGCCTCACATTGTCAGTACGCTTCCTAAAGACTTCACTCTCTCCTTGTTCGGTCTTTGCGAGCTCAGATATTGTGTCCACAATATCCCCAGTAGAAAATCAACACTTGATTTTTTTAGGAATGATATTAGGATAATAGAGGTGATTTGGAAAAGGTATCACAAAACAAAAAGTAGGATATTTCTAACCTACTTTTCATTTCCTTATA (double strand) [T sequence (oriT)]
[1]
  Kd: 153 nM
[3]
  binding: no binding

## L sequence (attL)
[5]
  Kd: 1960 nM

## AGTACAGGACTGGATTCAATTTTATGCCAAAATTCCTGCCAAACTTCAAATTTATGAACTCAAACCCCTTGATACTGCACATTTAACAGGTTGTGCAATTGTTACTCTTAAATAATAGAGTTTCCAATCAAAATAAAAACCTATCACCTAATGTGGTAGGTTTTTTTTGTTCTATTGTTGCAAACGTTTTCGTTGTGGGGTATAATATAAAAAAT (double strand) [L sequence (attL)]
[2]
  Kd: 1960 nM
